According to patent US20230348603A1 (VERSEAU THERAPEUTICS, published 2023):

Key:
Human VSIG4-L-Fc [1] = target: T1, Human VSIG4-L-Fc (human); assay: BLI cross-blocking on hVSIG4-L-Fc, competitor 14C05 first
T1 construct: also called hVSIG4-L-Fc; hVSIG4-L

Mouse VSIG4-His = target: T2, Mouse VSIG4-His (mouse); assay: ELISA (FJB), muVSIG4-His
T2 construct: ECD with His tag; also called mVSIG4
T2 chain: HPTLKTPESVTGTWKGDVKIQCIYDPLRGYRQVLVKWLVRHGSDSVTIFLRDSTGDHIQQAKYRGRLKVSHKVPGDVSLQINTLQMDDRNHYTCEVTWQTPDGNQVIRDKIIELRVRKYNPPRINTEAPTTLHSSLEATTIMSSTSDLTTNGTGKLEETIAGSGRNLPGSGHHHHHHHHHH

Human VSIG4-L-Fc [2] = target: T1, Human VSIG4-L-Fc; assay: BLI cross-blocking on hVSIG4-L-Fc, competitor 16G02 first
Human VSIG4-L-Fc [3] = target: T1, Human VSIG4-L-Fc; assay: ligand competition ELISA (FJB), blocked ligand iC3b
Human VSIG4-L-Fc [4] = target: T1, Human VSIG4-L-Fc; assay: BLI cross-blocking on hVSIG4-L-Fc, competitor 12A12 first
Human VSIG4-L-His = target: T3, Human VSIG4-L-His (human, UniProt Q9Y279 20-283); assay: SPR (FJB)
T3 construct: long isoform ECD with His tag; also called hVSIG4-L
T3 sequence: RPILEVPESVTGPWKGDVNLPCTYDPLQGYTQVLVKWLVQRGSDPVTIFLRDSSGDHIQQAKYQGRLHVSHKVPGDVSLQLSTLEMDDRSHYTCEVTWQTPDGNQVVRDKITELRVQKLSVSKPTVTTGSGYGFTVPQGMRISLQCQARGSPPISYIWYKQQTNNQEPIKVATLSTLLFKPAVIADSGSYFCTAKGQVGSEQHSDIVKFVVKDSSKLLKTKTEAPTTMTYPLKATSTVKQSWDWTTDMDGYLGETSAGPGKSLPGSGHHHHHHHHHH

[5] = target: T4, Cynomolgus Monkey VSIG4-L-His (cynomolgus monkey); assay: SPR (FJB)
T4 construct: ECD with His tag; also called cyVSIG4-L; cyno VSIG4-L-His
T4 chain: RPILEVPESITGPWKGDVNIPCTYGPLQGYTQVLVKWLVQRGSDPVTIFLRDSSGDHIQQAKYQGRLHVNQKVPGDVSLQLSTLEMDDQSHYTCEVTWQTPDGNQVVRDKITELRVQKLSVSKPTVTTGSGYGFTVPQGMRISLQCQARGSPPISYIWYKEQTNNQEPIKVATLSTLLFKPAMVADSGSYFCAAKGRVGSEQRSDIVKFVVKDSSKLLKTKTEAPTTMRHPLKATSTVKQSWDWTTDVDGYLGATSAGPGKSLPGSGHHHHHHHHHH

Human VSIG4-L-Fc [6] = target: T1, Human VSIG4-L-Fc; assay: ligand competition ELISA (FJB), blocked ligand C3b
Human VSIG4-L-Fc [7] = target: T1, Human VSIG4-L-Fc; assay: ligand competition ELISA (FJB), blocked ligand C3b, 200 nM mAb
[8] = target: T5, Human VSIG4-L-CHO (human VSIG4 long isoform on CHO-K1 cells) (human, UniProt Q9Y279 20-399); assay: flow cytometry (FJB), huVSIG4-L CHO-K1 cells
T5 construct: also called hVSIG4-L (flow cytometry)
T5 sequence: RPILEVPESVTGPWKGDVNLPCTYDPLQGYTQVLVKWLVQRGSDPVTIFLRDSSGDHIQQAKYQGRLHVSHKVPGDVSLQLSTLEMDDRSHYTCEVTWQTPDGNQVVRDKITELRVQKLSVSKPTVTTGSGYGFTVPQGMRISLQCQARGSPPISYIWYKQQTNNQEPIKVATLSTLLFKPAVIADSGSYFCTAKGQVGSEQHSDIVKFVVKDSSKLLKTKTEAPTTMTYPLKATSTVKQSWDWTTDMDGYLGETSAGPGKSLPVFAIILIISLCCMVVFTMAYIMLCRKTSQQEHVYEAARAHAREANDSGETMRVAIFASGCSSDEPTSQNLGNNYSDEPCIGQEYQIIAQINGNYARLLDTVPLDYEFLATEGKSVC

[9] = target: T5, Human VSIG4-L-CHO (human VSIG4 long …); assay: flow cytometry (FJB), 200 nM mAb, huVSIG4-L CHO-K1 cells
[10] = target: T5, Human VSIG4-L-CHO (human VSIG4 long …); assay: flow cytometry (FJB), 200 nM mAb, huVSIG4-L CHO-K1 over parental CHO-K1
Human VSIG4-L-Fc [11] = target: T1, Human VSIG4-L-Fc; assay: ligand competition ELISA (FJB), blocked ligand iC3b, 200 nM mAb

binding signal (nm shift) (Human VSIG4-L-Fc [1]): 0.11 nm
binding result (Mouse VSIG4-His): no binding (tested: 50 nM)
binding signal (nm shift) (Human VSIG4-L-Fc [2]): 0.11 nm
IC50 (Human VSIG4-L-Fc [3]): 1 nM
binding signal (nm shift) (Human VSIG4-L-Fc [4]): 0.1 nm
Kd (Human VSIG4-L-His): 2.5 nM
Kd [5]: 1.3 nM
IC50 (Human VSIG4-L-Fc [6]): 1.1 nM
% Block C3b (200 nM mAb) (Human VSIG4-L-Fc [7]): 96%
EC50 [8]: 5.2 nM
Binding (200 nM) MFI [9]: 38100 MFI
Binding (200 nM) Fold-Over-Parental [10]: 130 fold
% Block iC3b (200 nM mAb) (Human VSIG4-L-Fc [11]): 98%
B1: 16G02 mouse/human chimeric IgG4 (S228P) kappa (antibody, V domains shown)
VH: QVQLQQSGAELMKPGASVKISCKATGYTFSSYWIEWVKQRPGHGLEWIGEILPGSSTTNYNEKFKGKATFTADTSSNTAYMQLSSLTSEDSAVYYCAREDHFITTARYAMDYWGQGTSVTVSS
VL: DIVLTQSPASLAMSVGQKVTMSCKSSQSLLNSSNQKNYLAWYQQKPGQSPKLLLYFASTRESGVPDRFIGSGSGTDFTLTISSVQAEDLADYFCQQHYSNPLTFGAGTKLELKR
